{"source": "patent US20170342349A1", "about": "“STABILIZED ENZYME COMPOSITIONS” (NOVOZYMES A/S, priority 2014, published 2017)", "key": {"[1]": {"molecular_target": "TY145 (SEQ ID NO 3) variant S173P + S175P + F180Y + L184F", "sequence (chain, as listed by the source S173P S175P F180Y S173P S175P F180Y limits assumed)": "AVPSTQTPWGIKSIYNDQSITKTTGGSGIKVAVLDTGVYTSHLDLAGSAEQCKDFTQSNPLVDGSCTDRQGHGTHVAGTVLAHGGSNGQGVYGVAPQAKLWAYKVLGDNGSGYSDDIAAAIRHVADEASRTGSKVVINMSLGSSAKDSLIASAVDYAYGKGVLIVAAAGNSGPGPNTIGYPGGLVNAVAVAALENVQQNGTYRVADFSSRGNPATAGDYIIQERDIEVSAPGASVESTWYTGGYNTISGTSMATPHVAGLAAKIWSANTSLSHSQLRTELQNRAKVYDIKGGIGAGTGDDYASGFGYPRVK", "test": "Ki fitted from Suc-AAPF-pNA activity in Model B detergent; IF relative to SEQ ID NO 3 comprising S173P + S175P + F180Y (second printed row for this variant)"}, "[2]": {"molecular_target": "TY145 (SEQ ID NO 3) variant S173P + S175P + F180Y + G182A", "test": "Ki fitted from Suc-AAPF-pNA activity in Model B detergent; IF relative to SEQ ID NO 3 comprising S173P + S175P + F180Y (second printed row for this variant)"}, "[3]": {"molecular_target": "TY145 (SEQ ID NO 3) variant S173P + S175P + I178F + F180Y", "test": "Ki fitted from Suc-AAPF-pNA activity in Model B detergent; IF relative to SEQ ID NO 3 comprising S173P + S175P + F180Y (second printed row for this variant)"}, "[4]": {"molecular_target": "TY145 (SEQ ID NO 3) variant K146F + S173P + S175P + F180Y", "test": "Ki fitted from Suc-AAPF-pNA activity in Model B detergent; IF relative to SEQ ID NO 3 comprising S173P + S175P + F180Y"}, "[5]": {"molecular_target": "TY145 (SEQ ID NO 3) variant K146S + S173P + S175P + F180Y", "test": "Ki fitted from Suc-AAPF-pNA activity in Model B detergent; IF relative to SEQ ID NO 3 comprising S173P + S175P + F180Y"}, "[6]": {"molecular_target": "TY145 (SEQ ID NO 3) variant S173P + S175P + F180Y + L184D", "test": "Ki fitted from Suc-AAPF-pNA activity in Model B detergent; IF relative to SEQ ID NO 3 comprising S173P + S175P + F180Y"}, "[7]": {"molecular_target": "TY145 (SEQ ID NO 3) variant S173P + S175P + I178P + F180Y", "test": "Ki fitted from Suc-AAPF-pNA activity in Model B detergent; IF relative to SEQ ID NO 3 comprising S173P + S175P + F180Y"}, "[8]": {"molecular_target": "TY145 (SEQ ID NO 3) variant S173P + S175P + F180Y + L184W", "test": "Ki fitted from Suc-AAPF-pNA activity in Model B detergent; IF relative to SEQ ID NO 3 comprising S173P + S175P + F180Y"}, "[9]": {"molecular_target": "TY145 (SEQ ID NO 3) variant Q70A + S173P + S175P + F180Y", "test": "Ki fitted from Suc-AAPF-pNA activity in Model B detergent; IF relative to SEQ ID NO 3 comprising S173P + S175P + F180Y"}, "[10]": {"molecular_target": "TY145 (SEQ ID NO 3) variant K146T + S173P + S175P + F180Y", "test": "Ki fitted from Suc-AAPF-pNA activity in Model B detergent; IF relative to SEQ ID NO 3 comprising S173P + S175P + F180Y"}, "[11]": {"molecular_target": "TY145 (SEQ ID NO 3) variant Q70H + S173P + S175P + F180Y", "sequence (chain, as listed by the source Q70H S173P S175P F180Y Q70H S173P S175P F180Y limits assumed)": "as the sequence (chain, as listed by the source S173P S175P F180Y S173P S175P F180Y limits assumed) above, with Q70H counted along it", "test": "Ki fitted from Suc-AAPF-pNA activity in Model B detergent; IF relative to SEQ ID NO 3 comprising S173P + S175P + F180Y"}, "[12]": {"molecular_target": "TY145 (SEQ ID NO 3) variant S173P + S175P + F180Y", "test": "Ki fitted from Suc-AAPF-pNA activity in Model B detergent; IF relative to SEQ ID NO 3 comprising S173P + S175P + F180Y (the reference itself)"}, "[13]": {"molecular_target": "Protease C (SEQ ID NO 6) variant Y166F (Lederbergia lenta (Bacillus lentus)) (UniProt P29600)", "test": "Ki fitted from Suc-AAPF-pNA activity in Model B detergent; IF relative to SEQ ID NO 6"}, "[14]": {"molecular_target": "Protease C (SEQ ID NO 6) variant N60H (Lederbergia lenta (Bacillus lentus)) (UniProt P29600)", "test": "Ki fitted from Suc-AAPF-pNA activity in Model B detergent; IF relative to SEQ ID NO 6"}, "[15]": {"molecular_target": "Protease C (SEQ ID NO 6) variant L134V (Lederbergia lenta (Bacillus lentus)) (UniProt P29600)", "test": "Ki fitted from Suc-AAPF-pNA activity in Model B detergent; IF relative to SEQ ID NO 6"}, "[16]": {"molecular_target": "Protease C (SEQ ID NO 6) variant N60F + S100I (Lederbergia lenta (Bacillus lentus)) (UniProt P29600)", "test": "Ki fitted from Suc-AAPF-pNA activity in Model B detergent; IF relative to SEQ ID NO 6"}, "[17]": {"molecular_target": "Protease C (SEQ ID NO 6) variant S100I + L134V (Lederbergia lenta (Bacillus lentus)) (UniProt P29600)", "test": "Ki fitted from Suc-AAPF-pNA activity in Model B detergent; IF relative to SEQ ID NO 6"}, "[18]": {"molecular_target": "Protease C (SEQ ID NO 6) variant N60F (Lederbergia lenta (Bacillus lentus)) (UniProt P29600)", "test": "Ki fitted from Suc-AAPF-pNA activity in Model B detergent; IF relative to SEQ ID NO 6"}, "[19]": {"molecular_target": "Protease C (SEQ ID NO 6) variant S100I (Lederbergia lenta (Bacillus lentus)) (UniProt P29600)", "test": "Ki fitted from Suc-AAPF-pNA activity in Model B detergent; IF relative to SEQ ID NO 6"}, "[20]": {"molecular_target": "Protease C (SEQ ID NO 6) variant S100I + Y166F (Lederbergia lenta (Bacillus lentus)) (UniProt P29600)", "test": "Ki fitted from Suc-AAPF-pNA activity in Model B detergent; IF relative to SEQ ID NO 6"}, "[21]": {"molecular_target": "Protease C (SEQ ID NO 6) variant N60H + S100I (Lederbergia lenta (Bacillus lentus)) (UniProt P29600)", "test": "Ki fitted from Suc-AAPF-pNA activity in Model B detergent; IF relative to SEQ ID NO 6"}, "[22]": {"molecular_target": "Protease C (SEQ ID NO 6) variant V103A (Lederbergia lenta (Bacillus lentus)) (UniProt P29600)", "test": "Ki fitted from Suc-AAPF-pNA activity in Model B detergent; IF relative to SEQ ID NO 6"}, "[23]": {"molecular_target": "Protease C (SEQ ID NO 6) variant N60A (Lederbergia lenta (Bacillus lentus)) (UniProt P29600)", "test": "Ki fitted from Suc-AAPF-pNA activity in Model B detergent; IF relative to SEQ ID NO 6"}}}
{"substance": "Inhibitor 1: Cbz-Gly-Ala-NHCH(CH2C6H4pOH)C(OH)(SO3Na)-H (peptide)", "values": [{"measurement": "IF (binding constant improvement factor, relative Ki)", "setting": "[1]", "result": 3.02}, {"measurement": "IF (binding constant improvement factor, relative Ki)", "setting": "[2]", "result": 2.01}, {"measurement": "IF (binding constant improvement factor, relative Ki)", "setting": "[3]", "result": 1.83}, {"measurement": "IF (binding constant improvement factor, relative Ki)", "setting": "[4]", "result": 5.17}, {"measurement": "IF (binding constant improvement factor, relative Ki)", "setting": "[5]", "result": 1.13}, {"measurement": "IF (binding constant improvement factor, relative Ki)", "setting": "[6]", "result": 3.28}, {"measurement": "IF (binding constant improvement factor, relative Ki)", "setting": "[7]", "result": 2.22}, {"measurement": "IF (binding constant improvement factor, relative Ki)", "setting": "[8]", "result": 2.23}, {"measurement": "IF (binding constant improvement factor, relative Ki)", "setting": "[9]", "result": 4.13}, {"measurement": "IF (binding constant improvement factor, relative Ki)", "setting": "[10]", "result": 15.9}, {"measurement": "IF (binding constant improvement factor, relative Ki)", "setting": "[11]", "result": 3.78}, {"measurement": "IF (binding constant improvement factor, relative Ki)", "setting": "[12]", "result": 1}, {"measurement": "IF (binding constant improvement factor, relative Ki)", "setting": "[13]", "result": 1.31}, {"measurement": "IF (binding constant improvement factor, relative Ki)", "setting": "[14]", "result": 1.24}, {"measurement": "IF (binding constant improvement factor, relative Ki)", "setting": "[15]", "result": 2.89}, {"measurement": "IF (binding constant improvement factor, relative Ki)", "setting": "[16]", "result": 11.3}, {"measurement": "IF (binding constant improvement factor, relative Ki)", "setting": "[17]", "result": 15.1}, {"measurement": "IF (binding constant improvement factor, relative Ki)", "setting": "[18]", "result": 3.25}, {"measurement": "IF (binding constant improvement factor, relative Ki)", "setting": "[19]", "result": 6.46}, {"measurement": "IF (binding constant improvement factor, relative Ki)", "setting": "[20]", "result": 11.3}, {"measurement": "IF (binding constant improvement factor, relative Ki)", "setting": "[21]", "result": 6.65}, {"measurement": "IF (binding constant improvement factor, relative Ki)", "setting": "[22]", "result": 1.49}, {"measurement": "IF (binding constant improvement factor, relative Ki)", "setting": "[23]", "result": 1.22}]}
